± gives the uncertainty stated by the source.
Experiment: self-splicing fitness, log relative to wild type (ln ratio); higher = more splicing; Tetrahymena group I intron in knt gene, E. coli kanamycin selection, DiMSum; sequences stand for … in CUCUCU…GGAGGGAAAAGUUAUCAGGCAUGCACCUGGUAGCUAGUCUUUAAACCAAUAGAUUGCAUCGGUUUAAAAGGCAAGACCGUCAAAUUGCGGGAAAGGGGUCAACAGCCGUUCAGUACCAAGUCUCAGGGGAAACUUUGAGAUGGCCUUGCAAAGGGUAUGGUAAUAAGCUGACGGACAUGGUCCUAACCACGCAGCCAAGUCCUAAGUCAACAGAUCUUCUGUUGAUAUGGAUGCAGUUCACAGACUAAAUGUCGGUCGGGGAAGAUGUAUUCUUCUCAUAAGAUAUAGUCGGACCUCUCCUUAAUGGGAGCUAGCGGAUGAAGUGAUGCAACACUGGAGCCGCUGGGAACUAAUUUGUAUGCGAAAGUAUAUUGAUUAGUUUUGGAGUACUCGUGGUCG
How it was run: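 Fitness was computed with DiMSum as the error-weighted combination of replicate fold changes, kanamycin versus none, each normalised to wild type. The library randomised all eight intron nucleotides of the P1ex region, with the intron placed in the knt kanamycin-resistance gene on pET-22b(+) in E. coli BL21(DE3). Six replicate transformations were grown overnight at 37°C or 30°C on LB agar with or without 25 μg/mL kanamycin, plus 100 μg/mL carbenicillin, 50 μM IPTG and 0.2% rhamnose. Pooled colonies were amplicon-sequenced on an Illumina HiSeq 2500.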

| Sequence | self-splicing fitness (ln) (30 °C) | self-splicing fitness (ln) (37 °C) |
| --- | --- | --- |
| ACUAAGCAAUAUUACGGAGA | -1.36 ± 0.23 | -3.35 ± 0.33 |
| ACUAAGCAAUAUUACGGCAU | -0.539 ± 0.062 | -0.563 ± 0.09 |
| ACUAAGCAAUAUUACGGCUA | -0.685 ± 0.085 | 0.0711 ± 0.11 |
| ACUAAGCAAUAUUACGGGAA | -2.17 ± 0.11 | -1.75 ± 0.15 |
| ACUAAGCAAUAUUACGGGCG | -0.856 ± 0.091 | -0.529 ± 0.1 |
| ACUAAGCAAUAUUACGGGUG | -0.981 ± 0.06 | -0.673 ± 0.097 |
| ACUAAGCAAUAUUACGGGUU | -3.17 ± 0.16 | -2.34 ± 0.23 |
| ACUAAGCAAUAUUACGGUAA | -1.56 ± 0.17 | -1.92 ± 0.18 |
| ACUAAGCAAUAUUACGGUCC | -2.35 ± 0.2 | -1.04 ± 0.23 |
| ACUAAGCAAUAUUACGGUCG | -2.89 ± 0.16 | -1.47 ± 0.15 |
| ACUAAGCAAUAUUACGGUGA | -1.54 ± 0.093 | -0.619 ± 0.13 |
| ACUAAGCAAUAUUACGUAAG | -1.05 ± 0.069 | -0.663 ± 0.089 |
| ACUAAGCAAUAUUACGUAUA | -1.9 ± 0.13 | -0.679 ± 0.12 |
| ACUAAGCAAUAUUACGUCCG | -1.69 ± 0.12 | -0.322 ± 0.17 |
| ACUAAGCAAUAUUACGUGAA | -1.24 ± 0.074 | -0.939 ± 0.1 |
| ACUAAGCAAUAUUACGUGGC | -3.03 ± 0.14 | -2.57 ± 0.17 |
| ACUCAGCAAUAUUACGAAAC | -2.62 ± 0.092 | -1.43 ± 0.11 |
| ACUCAGCAAUAUUACGAACA | -1.16 ± 0.076 | -0.892 ± 0.09 |
| ACUCAGCAAUAUUACGAAGU | -3 ± 0.14 | -1.75 ± 0.14 |
| ACUCAGCAAUAUUACGAAUC |  | -1.05 ± 0.32 |
| ACUCAGCAAUAUUACGACAA | -0.977 ± 0.27 | -1.18 ± 0.24 |
| ACUCAGCAAUAUUACGACUG | -3.86 ± 0.23 | -1.47 ± 0.14 |
| ACUCAGCAAUAUUACGAGAC | -2.7 ± 0.24 | -1.87 ± 0.17 |
| ACUCAGCAAUAUUACGAGAG | -2.02 ± 0.14 | -0.637 ± 0.12 |

| Sequence | self-splicing fitness (ln) (30 °C) | self-splicing fitness (ln) (37 °C) |
| --- | --- | --- |
| ACUCAGCAAUAUUACGAGGC | -3.27 ± 0.34 | -2.56 ± 0.3 |
| ACUCAGCAAUAUUACGAUAA | -1.25 ± 0.078 | -0.67 ± 0.097 |
| ACUCAGCAAUAUUACGAUGC | -0.776 ± 0.066 | -0.0529 ± 0.075 |
| ACUCAGCAAUAUUACGAUGG | -1.1 ± 0.063 | -0.87 ± 0.1 |
| ACUCAGCAAUAUUACGCACA | -0.835 ± 0.083 | -0.539 ± 0.1 |
| ACUCAGCAAUAUUACGCCAC | -2.88 ± 0.21 |  |
| ACUCAGCAAUAUUACGCCCU | -0.136 ± 0.15 | 0.51 ± 0.17 |
| ACUCAGCAAUAUUACGCUGU | -3.46 ± 0.19 | -1.4 ± 0.17 |
| ACUCAGCAAUAUUACGGAAG | -0.707 ± 0.088 | -0.89 ± 0.13 |
| ACUCAGCAAUAUUACGGACU | 0.409 ± 0.086 | -0.57 ± 0.087 |
| ACUCAGCAAUAUUACGGUAG | -3.73 ± 0.13 | -2.92 ± 0.15 |
| ACUCAGCAAUAUUACGGUGA | -2.73 ± 0.12 | -1.23 ± 0.095 |
| ACUCAGCAAUAUUACGUCGU | -1.42 ± 0.07 | -0.573 ± 0.081 |
| ACUCAGCAAUAUUACGUGAC | -3.15 ± 0.14 | -0.561 ± 0.11 |
| ACUCAGCAAUAUUACGUUUA | -1.54 ± 0.078 | -0.51 ± 0.086 |
| ACUGAGCAAUAUUACGAAAU | -2.94 ± 0.24 | -1.72 ± 0.22 |
| ACUGAGCAAUAUUACGAAUU | -2.97 ± 0.29 | -2.1 ± 0.24 |
| ACUGAGCAAUAUUACGACCA | -2.57 ± 0.39 | -1.1 ± 0.28 |
| ACUGAGCAAUAUUACGAUUC | -2.78 ± 0.5 | -1.57 ± 0.31 |
| ACUGAGCAAUAUUACGCACG | -2.17 ± 0.15 | -1.11 ± 0.17 |
| ACUGAGCAAUAUUACGCAGU | -2.36 ± 0.24 | -1.35 ± 0.2 |
| ACUGAGCAAUAUUACGCAUU | -2.71 ± 0.1 | -1.29 ± 0.11 |
| ACUGAGCAAUAUUACGCCCU | -1.87 ± 0.33 | -1.05 ± 0.44 |
| ACUGAGCAAUAUUACGCGCA | -3.04 ± 0.42 | -1.66 ± 0.36 |

| Sequence | self-splicing fitness (ln) (30 °C) | self-splicing fitness (ln) (37 °C) |
| --- | --- | --- |
| ACUGAGCAAUAUUACGGAGA | -3.46 ± 0.21 | -3.08 ± 0.27 |
| ACUGAGCAAUAUUACGGAUA | -3.08 ± 0.28 | -1.77 ± 0.26 |
| ACUGAGCAAUAUUACGGCAG | -1.75 ± 0.12 | -0.311 ± 0.15 |
| ACUGAGCAAUAUUACGGCCA | -2.43 ± 0.28 | -2.07 ± 0.33 |
| ACUGAGCAAUAUUACGGUAG | -3.12 ± 0.18 | -1.03 ± 0.21 |
| ACUGAGCAAUAUUACGGUCA | -3.09 ± 0.21 | -1.51 ± 0.15 |
| ACUGAGCAAUAUUACGGUUA | -2.56 ± 0.21 | -1.9 ± 0.17 |
| ACUGAGCAAUAUUACGUAAC | -4.25 ± 0.25 | -3.36 ± 0.3 |
| ACUGAGCAAUAUUACGUAAG | -2.02 ± 0.086 | -0.834 ± 0.1 |
| ACUGAGCAAUAUUACGUAGG | -2.14 ± 0.14 | -1.27 ± 0.18 |
| ACUGAGCAAUAUUACGUCAA | -3.09 ± 0.23 | -2.31 ± 0.19 |
| ACUGAGCAAUAUUACGUCGU | -2.87 ± 0.16 | -1.96 ± 0.14 |
| ACUGAGCAAUAUUACGUGCG | -3 ± 0.13 | -1.28 ± 0.11 |
| ACUUAGCAAUAUUACGAACA | -1.35 ± 0.2 | -0.724 ± 0.19 |
| ACUUAGCAAUAUUACGAAGG | -2.08 ± 0.12 | -1.33 ± 0.17 |
| ACUUAGCAAUAUUACGACGG | -0.755 ± 0.081 | -0.0301 ± 0.11 |
| ACUUAGCAAUAUUACGAGCU | -0.379 ± 0.099 | -0.0037 ± 0.14 |
| ACUUAGCAAUAUUACGAGUC |  | -3.01 ± 0.35 |
| ACUUAGCAAUAUUACGCAAG | -2.24 ± 0.17 | -1.32 ± 0.14 |
| ACUUAGCAAUAUUACGCAUA | -1.74 ± 0.12 | -1.42 ± 0.14 |
| ACUUAGCAAUAUUACGCCUG | -1.12 ± 0.18 | -0.484 ± 0.19 |
| ACUUAGCAAUAUUACGCUUA | -1.26 ± 0.15 | -1.75 ± 0.21 |
| ACUUAGCAAUAUUACGCUUC | -2.32 ± 0.19 | -2.18 ± 0.45 |
| ACUUAGCAAUAUUACGGAGG | -2.19 ± 0.13 | -1.48 ± 0.16 |

| Sequence | self-splicing fitness (ln) (30 °C) | self-splicing fitness (ln) (37 °C) |
| --- | --- | --- |
| ACUUAGCAAUAUUACGGGGG | -2.98 ± 0.23 | -1.96 ± 0.21 |
| ACUUAGCAAUAUUACGUAAC | -2.9 ± 0.12 | -2.43 ± 0.2 |
| ACUUAGCAAUAUUACGUACC | -2.17 ± 0.23 | -1.06 ± 0.23 |
| ACUUAGCAAUAUUACGUCUC | -2.31 ± 0.25 | -3.34 ± 0.32 |
| ACUUAGCAAUAUUACGUUAC | -3.55 ± 0.26 | -2.55 ± 0.38 |
| ACUUAGCAAUAUUACGUUAU | -3.66 ± 0.22 | -1.31 ± 0.16 |
| AGAAAGCAAUAUUACGAAAG | -3.93 ± 0.21 | -1.94 ± 0.18 |
| AGAAAGCAAUAUUACGAGAU | -3.45 ± 0.24 | -1.99 ± 0.2 |
| AGAAAGCAAUAUUACGAGGA | -3.15 ± 0.15 | -2.71 ± 0.16 |
| AGAAAGCAAUAUUACGAGUC | -3.82 ± 0.33 | -1.57 ± 0.18 |
| AGAAAGCAAUAUUACGCAAG | -1.66 ± 0.13 | -1.32 ± 0.18 |
| AGAAAGCAAUAUUACGCCGU | -0.929 ± 0.11 | -0.341 ± 0.13 |
| AGAAAGCAAUAUUACGCUGU | -2.34 ± 0.14 | -1.98 ± 0.16 |
| AGAAAGCAAUAUUACGGCAU | -0.587 ± 0.051 | -0.525 ± 0.064 |
| AGAAAGCAAUAUUACGGGUC | -3.05 ± 0.21 | -3.35 ± 0.31 |
| AGAAAGCAAUAUUACGGGUU | -2.85 ± 0.15 | -1.61 ± 0.12 |
| AGAAAGCAAUAUUACGGUCG | -0.278 ± 0.07 | -0.0273 ± 0.092 |
| AGAAAGCAAUAUUACGUACU | -0.412 ± 0.096 | 0.261 ± 0.11 |
| AGAAAGCAAUAUUACGUCCC | -0.156 ± 0.18 | 0.119 ± 0.25 |
| AGAAAGCAAUAUUACGUCUA | -0.728 ± 0.091 | -0.00176 ± 0.092 |
| AGAAAGCAAUAUUACGUCUU | -1.77 ± 0.09 | -0.678 ± 0.088 |
| AGAAAGCAAUAUUACGUGGA | -2.47 ± 0.12 | -2.28 ± 0.13 |
| AGAAAGCAAUAUUACGUUCA | -0.142 ± 0.084 | 0.14 ± 0.12 |
| AGAAAGCAAUAUUACGUUUU | -3.84 ± 0.17 | -3.06 ± 0.2 |
